Results: the Human Domainome abundance scans (Beltran et al. 2025)
± gives the uncertainty stated by the source.

B1: Protein C-ets-1, residues 55 to 135; numbered along this chain, P14921 (parent)
chain: GFTKEQQRLGIPKDPRQWTETHVRDWVMWAVNEFSLKGVDFQKFCMNGAALCALGKDCFLELAPDFVGDILWEHLEILQKE

Variants of: B1
Assay: abundance fitness (aPCA) (normalised: wild type 0, dead -1); higher = more abundant; growth selection in yeast, the domain comes from the species named
Conditions: Homo sapiens

Compared with GFTKEQQRLGIPKDPRQWTETHVRDWLMWAVNEFSLKGVDFQKFCMNGAALCALGKDCFLELAPDFVGDILWEHLEILQKE [V27L], GFTKEQQRLGIPKDPRQWTETHVRDWFMWAVNEFSLKGVDFQKFCMNGAALCALGKDCFLELAPDFVGDILWEHLEILQKE [V27F] is lower in abundance fitness: -0.013 ± 0.03 for the first, -0.214 ± 0.046 for the second.

Compared with GFTKEQQRLGIPKDPRQWTETHVRDWDMWAVNEFSLKGVDFQKFCMNGAALCALGKDCFLELAPDFVGDILWEHLEILQKE [V27D], GFTKEQQRLGIPKDPRQWTETHVRDWCMWAVNEFSLKGVDFQKFCMNGAALCALGKDCFLELAPDFVGDILWEHLEILQKE [V27C] is higher in abundance fitness: -0.887 ± 0.11 for the first, -0.18 ± 0.044 for the second.

GFTKEQQRLGIPKDPRQWTETHVRDWYMWAVNEFSLKGVDFQKFCMNGAALCALGKDCFLELAPDFVGDILWEHLEILQKE [V27Y] and GFTKEQQRLGIPKDPRQWTETHVRDWEMWAVNEFSLKGVDFQKFCMNGAALCALGKDCFLELAPDFVGDILWEHLEILQKE [V27E] are within error of each other in abundance fitness: -0.992 ± 0.19 for the first, -1 ± 0.11 for the second.

GFTKEQQRLGIPKDPRQWTETHVRDWSMWAVNEFSLKGVDFQKFCMNGAALCALGKDCFLELAPDFVGDILWEHLEILQKE [V27S] and GFTKEQQRLGIPKDPRQWTETHVRDWPMWAVNEFSLKGVDFQKFCMNGAALCALGKDCFLELAPDFVGDILWEHLEILQKE [V27P] are within error of each other in abundance fitness: -0.841 ± 0.046 for the first, -0.86 ± 0.076 for the second.

First: GFTKEQQRLGIPKDPRQWTETHVRDWAMWAVNEFSLKGVDFQKFCMNGAALCALGKDCFLELAPDFVGDILWEHLEILQKE [V27A]
Second: GFTKEQQRLGIPKDPRQWTETHVRDWNMWAVNEFSLKGVDFQKFCMNGAALCALGKDCFLELAPDFVGDILWEHLEILQKE [V27N]
The abundance fitness of the first is higher: -0.2 ± 0.031 for the first, -0.796 ± 0.16 for the second.

GFTKEQQRLGIPKDPRQWTETHVRDWKMWAVNEFSLKGVDFQKFCMNGAALCALGKDCFLELAPDFVGDILWEHLEILQKE [V27K] and GFTKEQQRLGIPKDPRQWTETHVRDWRMWAVNEFSLKGVDFQKFCMNGAALCALGKDCFLELAPDFVGDILWEHLEILQKE [V27R] are within error of each other in abundance fitness: -0.983 ± 0.39 for the first, -0.876 ± 0.042 for the second.

First: GFTKEQQRLGIPKDPRQWTETHVRDWGMWAVNEFSLKGVDFQKFCMNGAALCALGKDCFLELAPDFVGDILWEHLEILQKE [V27G]
Second: GFTKEQQRLGIPKDPRQWTETHVRDWIMWAVNEFSLKGVDFQKFCMNGAALCALGKDCFLELAPDFVGDILWEHLEILQKE [V27I]
The abundance fitness of the first is lower: -0.739 ± 0.037 for the first, -0.003 ± 0.055 for the second.

Going from GFTKEQQRLGIPKDPRQWTETHVRDWMMWAVNEFSLKGVDFQKFCMNGAALCALGKDCFLELAPDFVGDILWEHLEILQKE [V27M] to GFTKEQQRLGIPKDPRQWTETHVRDWHMWAVNEFSLKGVDFQKFCMNGAALCALGKDCFLELAPDFVGDILWEHLEILQKE [V27H], the abundance fitness falls from -0.045 ± 0.049 to -0.931 ± 0.19.

Going from GFTKEQQRLGIPKDPRQWTETHVRDWWMWAVNEFSLKGVDFQKFCMNGAALCALGKDCFLELAPDFVGDILWEHLEILQKE [V27W] to GFTKEQQRLGIPKDPRQWTETHVRDVVMWAVNEFSLKGVDFQKFCMNGAALCALGKDCFLELAPDFVGDILWEHLEILQKE [W26V], the abundance fitness falls from -0.625 ± 0.06 to -0.863 ± 0.041.

Compared with GFTKEQQRLGIPKDPRQWTETHVRDRVMWAVNEFSLKGVDFQKFCMNGAALCALGKDCFLELAPDFVGDILWEHLEILQKE [W26R], GFTKEQQRLGIPKDPRQWTETHVRDFVMWAVNEFSLKGVDFQKFCMNGAALCALGKDCFLELAPDFVGDILWEHLEILQKE [W26F] is higher in abundance fitness: -0.934 ± 0.04 for the first, -0.213 ± 0.053 for the second.

Going from GFTKEQQRLGIPKDPRQWTETHVRDKVMWAVNEFSLKGVDFQKFCMNGAALCALGKDCFLELAPDFVGDILWEHLEILQKE [W26K] to GFTKEQQRLGIPKDPRQWTETHVRDYVMWAVNEFSLKGVDFQKFCMNGAALCALGKDCFLELAPDFVGDILWEHLEILQKE [W26Y], the abundance fitness rises from -0.727 ± 0.066 to -0.281 ± 0.049.

GFTKEQQRLGIPKDPRQWTETHVRDGVMWAVNEFSLKGVDFQKFCMNGAALCALGKDCFLELAPDFVGDILWEHLEILQKE [W26G] and GFTKEQQRLGIPKDPRQWTETHVRDSVMWAVNEFSLKGVDFQKFCMNGAALCALGKDCFLELAPDFVGDILWEHLEILQKE [W26S] are within error of each other in abundance fitness: -0.895 ± 0.038 for the first, -0.968 ± 0.05 for the second.

GFTKEQQRLGIPKDPRQWTETHVRDHVMWAVNEFSLKGVDFQKFCMNGAALCALGKDCFLELAPDFVGDILWEHLEILQKE [W26H] and GFTKEQQRLGIPKDPRQWTETHVRDMVMWAVNEFSLKGVDFQKFCMNGAALCALGKDCFLELAPDFVGDILWEHLEILQKE [W26M] are within error of each other in abundance fitness: -0.822 ± 0.089 for the first, -0.898 ± 0.062 for the second.

Going from GFTKEQQRLGIPKDPRQWTETHVRDLVMWAVNEFSLKGVDFQKFCMNGAALCALGKDCFLELAPDFVGDILWEHLEILQKE [W26L] to GFTKEQQRLGIPKDPRQWTETHVRDPVMWAVNEFSLKGVDFQKFCMNGAALCALGKDCFLELAPDFVGDILWEHLEILQKE [W26P], the abundance fitness rises from -0.966 ± 0.052 to -0.861 ± 0.048.

GFTKEQQRLGIPKDPRQWTETHVRDTVMWAVNEFSLKGVDFQKFCMNGAALCALGKDCFLELAPDFVGDILWEHLEILQKE [W26T] and GFTKEQQRLGIPKDPRQWTETHVRDEVMWAVNEFSLKGVDFQKFCMNGAALCALGKDCFLELAPDFVGDILWEHLEILQKE [W26E] are within error of each other in abundance fitness: -0.954 ± 0.06 for the first, -0.84 ± 0.057 for the second.

GFTKEQQRLGIPKDPRQWTETHVRDNVMWAVNEFSLKGVDFQKFCMNGAALCALGKDCFLELAPDFVGDILWEHLEILQKE [W26N] and GFTKEQQRLGIPKDPRQWTETHVRDIVMWAVNEFSLKGVDFQKFCMNGAALCALGKDCFLELAPDFVGDILWEHLEILQKE [W26I] are within error of each other in abundance fitness: -0.865 ± 0.096 for the first, -1.1 ± 0.15 for the second.

GFTKEQQRLGIPKDPRQWTETHVRDDVMWAVNEFSLKGVDFQKFCMNGAALCALGKDCFLELAPDFVGDILWEHLEILQKE [W26D] and GFTKEQQRLGIPKDPRQWTETHVRDCVMWAVNEFSLKGVDFQKFCMNGAALCALGKDCFLELAPDFVGDILWEHLEILQKE [W26C] are within error of each other in abundance fitness: -0.668 ± 0.064 for the first, -0.662 ± 0.058 for the second.
